B1: nfsA: nitroreductase derived from Escherichia coli, SEQ ID NO: 13, overexpressed in E. coli (protein, listed as Escherichia coli)
chain: MTPTIELICGHRSIRHFTDEPISEAQREAIINSARATSSSSFLQCSSIIRITDKALREELVTLTGGQKHVAQAAEFWVFCADFNRHLQICPDAQLGLAEQLLLGVVDTAMMAQNALIAAESLGLGGVYIGGLRNNIEAVTKLLKLPQHVLPLFGLCLGWPADNPDLKPRLPASILVHENSYQPLDKGALAQYDEQLAEYYLTRGSNNRRDTWSDHIRRTIIKESRPFILDYLHKQGWATR
modifications: nfsA Polypeptide
B2: scHbn1: enzyme (nitroreductase) derived from Saccharomyces cerevisiae, SEQ ID NO:9, expressed in E. coli (protein, listed as Saccharomyces cerevisiae)
chain: MSAVATYLKTLTARRTIYALKPELPGEITINDIQSVVQTIIKETPTAFNSQPNRAVILTGETHKKVWDEVTKAIESPAGQKRPASARDEAFGSVIFFTDDKVTEKLKADFPAYAAAFPSFADHTSGAAQINSWVALEAMGLGGHLQHYNGYIKAALPSKIPESWTVQAQLVFGTPAAPPGEKTYIKNDVEIFN
modifications: scHbn1 Polypeptide
B3: cdFLDZ: enzyme derived from Clostridium difficile, SEQ ID NO: 11, expressed in E. coli (protein)
chain: MKISSMFTPIRIGSMTVPNRFVVPPMGNNFANTDGTLSETSKAYYLERALGGFGLITIESSVVDKKAKGGPRKPCLYDDSTIDSFKNVIDACHDAGSKVSIQLQHAGSEGNEKVAGHPLKAASAIPASNGRNTPLAITTEEIYELIESYGDAALRAQKAGADAVEVHCAHGYLVSSFISQRTNKRVDEFGGCFENRMRLPRLIIENIRKKVGNSLAILCRINSTDDVPGGIDVHDSSVIAAYLEDCGIDGLHVSRSIHIHDEYMWAPTTLHAGFSAELVTEIKKAVSIPVITVGRYTEPQFAELMVRQGRCDLVAFGRQSLADPEMPNKAKNGKLDEMIPCIACLQGCVPNMFQGKPIACLANPILGHEAELKPAEISKEVLVVGGGVGGMLAAWVCAKRGHNVTLVEKSEVLGGQMRLAAYPPGKGDITNLVRSYISKCNQYGVKICTNTEATVELIKEKSPDVVIIATGATPLVLPIPGINDSGLIHAVDLLDGKKSCGKKVLVVGGGMVGCEVAAFLGEQEHEVTVIELREEVGADVISEHRKFLMNDFENYNIHTITGAKVSKFYDDGVDYLLTDGTEHDLKGFDSVVLAMGSRNYDPLSEVIKEVVKETYIVGDAVKARRALDATKEAFEVALNI
modifications: Clostridium difficile; cdFLDZ Polypeptide
B4: nfsB: nitroreductase derived from Escherichia coli, SEQ ID NO:15, overexpressed in E. coli (protein, listed as Escherichia coli)
chain: MDIISVALKRHSTKAFDASKKLTPEQAEQIKTLLQYSPSSTNSQPWHFIVASTEEGKARVAKSAAGNYVFNERKMLDASHVVVFCAKTAMDDVWLKLVVDQEDADGRFATPEAKAANDKGRKFFADMHRKDLHDDAEWMAKQVYLNVGNFLLGVAALGLDAVPIEGFDAAILDAEFGLKEKGYTSLVVVPVGHHSVEDFNATLPKSRLPQNITLTEV
modifications: nfsB Polypeptide
B5: scFrm2: enzyme (nitroreductase) derived from Saccharomyces cerevisiae, SEQ ID NO:7, expressed in E. coli (protein, listed as Saccharomyces cerevisiae)
chain: MSPTGNYLNAITNRRTIYNLKPELPQGVGLDDVKRTVHVILKNTPTAFNSQVNRAVIIVGDTHKRIWDAVASAMPTAEAKKRPESCRDEAYGSVIFFTDEGPTEKLQRDFPALAAAFPTCAAHTTGAVQIQSWTALELLGLGANLQHYNDYVKSALPQDVPIAWTVQSQLVFGVPTALPEEKTFINNVINVYH
modifications: scFrm2 Polypeptide
B6: RgPAL: phenylalanine ammonia-lyase derived from yeast Rhodotorula glutinis JN-1, SEQ ID NO: 5, expressed in E. coli (protein, listed as Rhodotorula glutinis)
chain: MAPSVDSIATSVANSLSNGLAGDLRKKTSGAGSLLPTTETTQIDIVERILADAGATDQIKLDGYTLTLGDVVGAARRGRTVKVADSPQIREKIDASVEFLRTQLDNSVYGVTTGFGGSADTRTEDAISLQKALLEHQLCGVLPTSMDGFALGRGLENSLPLEVVRGAMTIRVNSLTRGHSAVRIVVLEALTNFLNHGITPIVPLRGTISASGDLSPLSYIAASITGHPDSKVHVDGQIMSAQEAIALKGLQPVVLGPKEGLGLVNGTAVSASMATLALTDAHVLSLLAQANTALTVEAMVGHAGSFHPFLHDVTRPHPTQIEVARNIRTLLEGSKYAVHHETEVKVKDDEGILRQDRYPLRCSPQWLGPLVSDMIHAHSVLSLEAGQSTTDNPLIDLENKMTHHGGAFMASSVGNTMEKTRLAVALMGKVSFTQLTEMLNAGMNRALPSCLAAEDPSLSYHCKGLDIAAAAYTSELGHLANPVSTHVQPAEMGNQAINSLALISARRTAEANDVLSLLLATHLYCVLQAVDLRAMEFEHTKEFEPMVTDLLKQHFGALATADVEDKVRKSIYKRLQQNNSYDLEQRWHDTFSVATGAVVEALAGNEVSLASLNAWKVACAEKAIALTRTVRDSFWAAPSSASPALKYLSPRTRILYSFVREDVGVKARRGDVYLGKQEVTIGTNVSRIYEAIKDGRIAPVLVKMMA
modifications: RgPAL Polypeptide

Assays:
[1] = Enzyme activities of nfsA and nfsB in cell reactions, 4-nitrocinnamic acid to 4-aminocinnamic acid; type: cell-based, Escherichia coli; settings: 2 g/L 4-nitrocinnamic acid, 2% glycerol, pH 8.0, 37° C., 18 hours
Procedure: Each of the nfsA- and nfsB-producing Escherichia coli strains was precultured using 5 mL of LB medium containing 40 mg/L of streptomycin sulfate at 28° C. for 16 hours with shaking at 300 rpm. 1 mL of this pre-cultured solution was inoculated to 100 mL of TB medium containing 80 mg/L streptomycin sulfate, cultured at 30° C. for 4 hours with shaking at 120 rpm. 0.1 mM IPTG was added, and the culture was further incubated at 30° C. for another 18 hours.
The pH of the culture medium containing the obtained bacterial cells was adjusted to 8.0 by addition of 2N NaOH. 2 g/L of 4-nitrocinnamic acid and 2% final concentration of glycerol were suspended in this culture medium, and the reaction was carried out at 37° C. for 18 hours with shaking at 120 rpm. After the reaction, the reaction solution supernatant was collected to quantify 4-aminocinnamic acid. Specifically, the supernatant was transferred to a centrifuge tube, collected by centrifugation, and the reaction product was quantified using the above HPLC.
The same experiment was also carried out using the host Escherichia coli as a control.

[2] = Resting-cell reaction of scFrm2-, scHbn1-, cdFLDZ-producing E. coli, 4-nitrocinnamic acid to 4-aminocinnamic acid; type: cell-based, Escherichia coli; settings: resting cells, 2.5 mM 4-nitrocinnamic acid, 30° C., 12 hours, pH 7.0; versus control E. coli
Procedure: Each of the scFrm2-, scHbn1-, and cdFLDZ-producing Escherichia coli strains were precultured using 3 mL of LB medium containing 30 mg/L kanamycin sulfate at 28° C. for 16 hours with shaking at 300 rpm. 1 mL of this preculture liquid was inoculated to 100 mL of LB medium containing 30 mg/L kanamycin sulfate, cultured at 30° C. for 4 hours with shaking at 120 rpm, and after 0.1 mM IPTG was added, incubated further at 20° C. for 12 hours. The obtained bacterial cells were washed twice with a reaction buffer (100 mM potassium dihydrogen phosphate (KH2PO4), 1 mM magnesium sulfate (MgSO4), 0.5 mM thiamine chloride, pH 7.0).
The resting cells thus obtained were suspended in a reaction buffer containing 2.5 mM 4-nitrocinnamic acid, and reacted at 30° C. for 12 hours with shaking at 300 rpm. After the reaction, the reaction supernatant was collected to quantify 4-aminocinnamic acid. The supernatant was transferred to a centrifuge tube, collected by centrifugation, and the reaction product was quantified using the above HPLC.
(§1) The same experiment was also performed using the host Escherichia coli as a control.

[3] = Deammonase activity of purified enzymes by absorptiometry; type: biochemical; settings: purified recombinant enzyme 2 mg/mL, 50 mM Tris-HCl pH 8.6, 0.3 to 9.6 mM substrate, 380 nm, 10 minutes
Procedure: • Apparatus: BECKMAN COULTER DU800 UV/Vis Spectrophotometer • Amount of enzyme: 2mg/mL • Buffer solution: 50mM Tris-HCl buffer (pH=8.6) • Concentration of substrate: 0.3mM to 9.6mM • Volume: 200μL • Measurement wavelength: From 4-nitrophenylalanine to 380 nm 4-nitrocinnamic acid: From phenylalanine to 305 nm cinnamic acid: • Measurement period: 10 minutes • Measurement temperature: 25° C.
Each of the CamPAL-, LiePAL-, and RgPAL-producing Escherichia coli strains was inoculated to 5 mL of LB medium containing 30 mg/L kanamycin sulfate, and cultured at 28° C. for 16 hours (hereinafter also may be referred to as “preculture”). […]
The enzyme activity was measured and quantified by measuring the absorbance of the reaction product at the absorption wavelength for 10 minutes using an absorptiometer.
Specifically, regarding the deammonase activity for phenylalanine, 2 mg/mL of each of the above enzymes was added to 50 mM Tris-HCl buffer (pH=8.6) containing 0.3 to 9.6 mM phenylalanine to cause reaction, and the change in absorbance at a wavelength of 305 nm resulting from the formation of cinnamic acid was measured for 10 minutes. […]

[4] = Resting-cell reaction of PAL-producing E. coli, 4-nitrophenylalanine to 4-nitrocinnamic acid; type: cell-based, Escherichia coli; settings: resting cells, 24 hours, 28° C., pH 8.5, 20 mM 4-nitrophenylalanine; versus control Escherichia coli
Procedure: The CamPAL-, LiePAL-, and RgPAL-producing Escherichia coli strains mentioned above were precultured using 3 mL of LB medium containing 40 mg/L kanamycin sulfate at 28° C. for 16 hours with stirring at 300 rpm. 1 mL of this pre-cultured liquid was inoculated to 100 mL of LB medium containing 40 mg/L of kanamycin sulfate, cultured at 30° C. for 4 hours with shaking at 120 rpm, and after the addition of 0.5 mM of IPTG, incubated further for 20 hours. The obtained bacterial cells were washed twice with a reaction buffer (100 mM Tris-HCl buffer, pH 8.5).
The resting cells obtained were suspended in a reaction buffer and reacted at 28° C. with shaking at 300 rpm. 20 mM of 4-nitrophenylalanine was added to the medium every 24 hours while the reaction was continued. The reaction supernatant was periodically collected to quantify 4-nitrophenylalanine and 4-nitrocinnamic acid.
The supernatant was transferred to a centrifuge tube, collected by centrifugation, and the reaction product was quantified using high performance liquid chromatography (HPLC).
as §1

| Molecule | 4-aminocinnamic acid converted from 4-nitrocinnamic acid [1] [g/L] | amount of 4-aminocinnamic acid in the medium supernatant [2] | further results |
| --- | --- | --- | --- |
| B1 | 0.26 |  |  |
| B2 |  | remarkably increased as compared with the control E. coli |  |
| B3 |  | remarkably increased as compared with the control E. coli |  |
| B4 | 0.76 |  |  |
| B5 |  | remarkably increased as compared with the control E. coli |  |
| B6 |  |  | capacity to convert 4-nitrophenylalanine to 4-nitrocinnamic acid [3]: have a capacity to covert 4-nitrophenylalanine to 4-nitrocinnamic acid; amount of 4-nitrocinnamic acid in the reaction supernatant [4]: significantly higher than that of the control Escherichia coli |
